Target: ornithine decarboxylase (ODC) (UniProt P11926)
Test: cell-based or functional assay

ornithine decarboxylase (ODC), sequence (P11926 whole entry): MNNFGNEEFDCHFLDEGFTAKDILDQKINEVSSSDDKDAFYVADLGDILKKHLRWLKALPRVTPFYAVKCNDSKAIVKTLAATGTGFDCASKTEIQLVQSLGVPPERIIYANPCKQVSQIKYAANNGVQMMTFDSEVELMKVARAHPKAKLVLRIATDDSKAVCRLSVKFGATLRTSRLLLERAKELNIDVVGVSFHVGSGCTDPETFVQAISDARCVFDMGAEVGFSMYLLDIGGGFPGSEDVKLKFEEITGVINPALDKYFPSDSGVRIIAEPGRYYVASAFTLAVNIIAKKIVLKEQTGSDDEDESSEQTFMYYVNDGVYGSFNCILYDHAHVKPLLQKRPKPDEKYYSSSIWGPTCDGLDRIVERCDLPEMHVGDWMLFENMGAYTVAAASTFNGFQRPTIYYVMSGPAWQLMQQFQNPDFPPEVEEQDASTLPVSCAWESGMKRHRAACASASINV

decrease in activity of purified ODC (released CO2) after 1 h with 100 µM peptide: 40%
Substance: QEP (glutamine-glutamic acid-proline tripeptide)

— patent US20170042969A1
